77 sequences from the supplement of paper PMC7877785 can be followed below.

± gives the uncertainty stated by the source.

This data set in a line: self-splicing fitness, log relative to wild type (ln ratio); higher = more splicing; Tetrahymena group I intron in knt gene, E. coli kanamycin selection, DiMSum; sequences stand for … in CUCUCU…GGAGGGAAAAGUUAUCAGGCAUGCACCUGGUAGCUAGUCUUUAAACCAAUAGAUUGCAUCGGUUUAAAAGGCAAGACCGUCAAAUUGCGGGAAAGGGGUCAACAGCCGUUCAGUACCAAGUCUCAGGGGAAACUUUGAGAUGGCCUUGCAAAGGGUAUGGUAAUAAGCUGACGGACAUGGUCCUAACCACGCAGCCAAGUCCUAAGUCAACAGAUCUUCUGUUGAUAUGGAUGCAGUUCACAGACUAAAUGUCGGUCGGGGAAGAUGUAUUCUUCUCAUAAGAUAUAGUCGGACCUCUCCUUAAUGGGAGCUAGCGGAUGAAGUGAUGCAACACUGGAGCCGCUGGGAACUAAUUUGUAUGCGAAAGUAUAUUGAUUAGUUUUGGAGUACUCGUGGUCG
The procedure, abridged:
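Pooled colonies went to amplicon sequencing on an Illumina HiSeq 2500 after six replicate transformations. The plates were LB agar with 100 μg/mL carbenicillin, 50 μM IPTG and 0.2% rhamnose, with or without 25 μg/mL kanamycin, incubated overnight at 37°C or 30°C. The E. coli BL21(DE3) library had all eight P1ex-region intron nucleotides randomised, the intron placed in the knt kanamycin-resistance gene on pET-22b(+). DiMSum fitness is the error-weighted combination of replicate fold changes, kanamycin against none, normalised to wild type.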

Regarding UACGAGCAAUAUUACGUCAA, under “37 °C”, the “self-splicing fitness (ln)” value was -2.31 ± 0.46.
Regarding CAUCAGCAAUAUUACGGCAA, the “self-splicing fitness (ln)” value by setting is: (30 °C) -3.37 ± 0.21; (37 °C) -2.1 ± 0.2.
On to GGAUAGCAAUAUUACGAAGA, for which the “self-splicing fitness (ln)” value is -2.93 ± 0.34 (30 °C) and -1.82 ± 0.31 (37 °C).
For AGUGAGCAAUAUUACGUUCC the same measures were -4 ± 0.34 and -1.47 ± 0.16.
Regarding CGAUAGCAAUAUUACGCUAG, the “self-splicing fitness (ln)” value was -1.18 ± 0.1 (30 °C) and -1.52 ± 0.19 (37 °C).
For GAGUAGCAAUAUUACGCCAA the same measures were -1.98 ± 0.43 and -1.66 ± 0.32.
For the sequence UGGCAGCAAUAUUACGUCCG, the “self-splicing fitness (ln)” value was -0.782 ± 0.095 (30 °C) and -0.304 ± 0.13 (37 °C).
On the same counts, the results for GGCUAGCAAUAUUACGUAUA are -1.27 ± 0.22 and -0.659 ± 0.19.
On the same counts, the results for UAUUAGCAAUAUUACGCCGA are -2.3 ± 0.31 and -0.195 ± 0.28.
As for ACGAAGCAAUAUUACGGAGU, the “self-splicing fitness (ln)” value (30 °C) is -3.82 ± 0.24 and the “self-splicing fitness (ln)” value (37 °C) is -3.07 ± 0.29.
Turning to UGAAAGCAAUAUUACGCUUC, the “self-splicing fitness (ln)” value runs as follows: (30 °C) -2.32 ± 0.42; (37 °C) -2.29 ± 0.29.
On the same counts, the results for UCACAGCAAUAUUACGAAUU are -4.34 ± 0.22 and -2.4 ± 0.16.
On the same counts, the results for UGUGAGCAAUAUUACGUUAG are -2.17 ± 0.25 and -2.84 ± 0.34.
Turning to AGCAAGCAAUAUUACGUAAC, the “self-splicing fitness (ln)” value reads like this: (30 °C) -5.08 ± 0.25; (37 °C) -2.09 ± 0.14.
For GUUGAGCAAUAUUACGUACG the same measures were -2.57 ± 0.39 and -2.31 ± 0.45.
For AAAUAGCAAUAUUACGAUUC the same measures were -0.544 ± 0.066 and -0.733 ± 0.1.
For GACAAGCAAUAUUACGGGAC the same measures were -2.13 ± 0.25 and -1.02 ± 0.4.
On to UGGGAGCAAUAUUACGAAGA, for which the “self-splicing fitness (ln)” value (30 °C) was -2.99 ± 0.47 and the “self-splicing fitness (ln)” value (37 °C) was -2.68 ± 0.33.
On the same counts, the results for CGGCAGCAAUAUUACGUGUA are -3.77 ± 0.25 and -2.21 ± 0.14.
For GGAUAGCAAUAUUACGUCCU the same measures were -3.13 ± 0.19 and -1.84 ± 0.24.
Take CAUGAGCAAUAUUACGGUCU: the “self-splicing fitness (ln)” value is -3.11 ± 0.28 (30 °C) and -1.2 ± 0.18 (37 °C).
With GGAUAGCAAUAUUACGUCCG, the “self-splicing fitness (ln)” value runs as follows: (30 °C) -0.616 ± 0.17; (37 °C) -0.972 ± 0.2.
For UAUUAGCAAUAUUACGGCGA the same measures were -0.206 ± 0.15 and -0.325 ± 0.16.
For GCGAAGCAAUAUUACGUCAG the same measures were -3.41 ± 0.2 and -2.52 ± 0.26.
Regarding UGGCAGCAAUAUUACGUCUA, the “self-splicing fitness (ln)” value by setting is: (30 °C) -0.425 ± 0.091; (37 °C) 0.66 ± 0.11.
For ACACAGCAAUAUUACGCGGG the same measures were -2.43 ± 0.075 and -1.69 ± 0.091.
For UAUGAGCAAUAUUACGGUUA the same measures were -1.76 ± 0.15 and 0.43 ± 0.12.
Turning to AAGCAGCAAUAUUACGUAUU, the “self-splicing fitness (ln)” value was -2.12 ± 0.058 (30 °C) and -1.43 ± 0.082 (37 °C).
In the case of CCAGAGCAAUAUUACGACAC, the “self-splicing fitness (ln)” value (30 °C) is -1.29 ± 0.22.
In the case of UACGAGCAAUAUUACGCUUC, the “self-splicing fitness (ln)” value by setting is: (30 °C) -2.53 ± 0.25; (37 °C) -1.32 ± 0.3.
As for UAAUAGCAAUAUUACGAGGU, the “self-splicing fitness (ln)” value was -3.06 ± 0.2 (30 °C) and -2.65 ± 0.26 (37 °C).
For UACCAGCAAUAUUACGGAGU the same measures were -3.23 ± 0.13 and -2.4 ± 0.17.
On the same counts, the results for CAAAAGCAAUAUUACGACGU are -0.652 ± 0.066 and 0.0132 ± 0.08.
For GCCUAGCAAUAUUACGGGAA the same measures were -0.327 ± 0.091 and 0.158 ± 0.11.
Regarding CUUGAGCAAUAUUACGCGCU, the “self-splicing fitness (ln)” value was -2.45 ± 0.29 (30 °C) and -1.22 ± 0.39 (37 °C).
As for GCGGAGCAAUAUUACGUUUA, the “self-splicing fitness (ln)” value (37 °C) is -2.33 ± 0.37.
Consider ACCGAGCAAUAUUACGAUCU, for which the “self-splicing fitness (ln)” value runs as follows: (30 °C) -1.66 ± 0.14; (37 °C) -0.405 ± 0.15.
For the sequence CACGAGCAAUAUUACGCGUC, the “self-splicing fitness (ln)” value by setting is: (30 °C) -3.19 ± 0.32; (37 °C) -1.52 ± 0.19.
As to AGGCAGCAAUAUUACGCUAC, for the setting “30 °C”, the “self-splicing fitness (ln)” value was -2.44 ± 0.23.
AUGGAGCAAUAUUACGGGGA: the “self-splicing fitness (ln)” value (30 °C) was -3.29 ± 0.4 and the “self-splicing fitness (ln)” value (37 °C) was -2.28 ± 0.32.
For AGCUAGCAAUAUUACGAAAA the same measures were -3.04 ± 0.38 and -1.66 ± 0.23.
For CACUAGCAAUAUUACGACGU the same measures were -2.27 ± 0.14 and -1.8 ± 0.11.
With AGAUAGCAAUAUUACGCUCA, the “self-splicing fitness (ln)” value by setting is: (30 °C) -0.765 ± 0.087; (37 °C) -0.082 ± 0.11.
As to UCCUAGCAAUAUUACGUUUG, the “self-splicing fitness (ln)” value runs as follows: (30 °C) -3.11 ± 0.17; (37 °C) -3.36 ± 0.26.
As for CGGCAGCAAUAUUACGAAUU, the “self-splicing fitness (ln)” value by setting is: (30 °C) -3 ± 0.23; (37 °C) -2.6 ± 0.33.
For AGUUAGCAAUAUUACGUGCC the same measures were -0.977 ± 0.12 and -0.145 ± 0.16.
Consider GAGAAGCAAUAUUACGACGC, for which the “self-splicing fitness (ln)” value reads like this: (30 °C) -0.75 ± 0.15; (37 °C) -0.292 ± 0.17.
As for GCAUAGCAAUAUUACGAGCA, the “self-splicing fitness (ln)” value (30 °C) was -1.39 ± 0.23 and the “self-splicing fitness (ln)” value (37 °C) was -0.718 ± 0.2.
For UGCGAGCAAUAUUACGGCGA the same measures were -0.753 ± 0.099 and -0.754 ± 0.11.
Consider CAGCAGCAAUAUUACGGGCG, for which the “self-splicing fitness (ln)” value stood at 0.0476 ± 0.064 (30 °C) and 0.363 ± 0.083 (37 °C).
On the same counts, the results for UGGUAGCAAUAUUACGGCCG are -1.62 ± 0.29 and -0.342 ± 0.32.
For UUGCAGCAAUAUUACGGUAG the same measures were -0.823 ± 0.057 and -0.064 ± 0.07.
On the same counts, the results for AAAAAGCAAUAUUACGGGGA are -1.74 ± 0.13 and -1.8 ± 0.13.
Turning to UACGAGCAAUAUUACGACGU, the “self-splicing fitness (ln)” value runs as follows: (30 °C) -2.08 ± 0.23; (37 °C) -2.12 ± 0.27.
On the same counts, the results for AGGCAGCAAUAUUACGUUGU are -2.88 ± 0.15 and -2.52 ± 0.21.
On the same counts, the results for CGGUAGCAAUAUUACGUGGU are -3.17 ± 0.21 and -2.3 ± 0.21.
On the same counts, the results for CUACAGCAAUAUUACGAAUA are -3.07 ± 0.41 and -2.21 ± 0.27.
For the sequence GCACAGCAAUAUUACGCAGC, the “self-splicing fitness (ln)” value (37 °C) is -1.85 ± 0.21.
With GUAUAGCAAUAUUACGACGG, the “self-splicing fitness (ln)” value runs as follows: (30 °C) -4.18 ± 0.37; (37 °C) -2.33 ± 0.35.
For UGCCAGCAAUAUUACGUUCA the same measures were -0.171 ± 0.059 and -0.0317 ± 0.089.
In the case of ACAUAGCAAUAUUACGUUUA, the “self-splicing fitness (ln)” value (30 °C) is -2.82 ± 0.19 and the “self-splicing fitness (ln)” value (37 °C) was -1.75 ± 0.14.
For GCGCAGCAAUAUUACGGCCA the same measures were -0.728 ± 0.12 and -1.03 ± 0.12.
Regarding CCAAAGCAAUAUUACGUAUA, the “self-splicing fitness (ln)” value is, setting by setting: (30 °C) -4.79 ± 0.32; (37 °C) -2.3 ± 0.14.
For CCCCAGCAAUAUUACGGAGA the same measures were -2.32 ± 0.12 and -1.61 ± 0.15.
On the same counts, the results for GGUUAGCAAUAUUACGCGGA are -1.4 ± 0.31 and -1.34 ± 0.23.
On the same counts, the results for GAACAGCAAUAUUACGGCUA are -0.474 ± 0.077 and -0.117 ± 0.084.
On to UCGAAGCAAUAUUACGAACA, for which the “self-splicing fitness (ln)” value by setting is: (30 °C) -0.799 ± 0.12; (37 °C) -0.112 ± 0.14.
In the case of UUACAGCAAUAUUACGAAAC, the “self-splicing fitness (ln)” value by setting is: (30 °C) -2.85 ± 0.33; (37 °C) -2.49 ± 0.41.
As for AGAUAGCAAUAUUACGAUGU, the “self-splicing fitness (ln)” value runs as follows: (30 °C) -0.932 ± 0.079; (37 °C) -0.112 ± 0.086.
Turning to CUCCAGCAAUAUUACGGAGG, the “self-splicing fitness (ln)” value (30 °C) is -3.04 ± 0.17 and the “self-splicing fitness (ln)” value (37 °C) is -2.44 ± 0.13.
Take UCUGAGCAAUAUUACGCCAG: under “37 °C”, the “self-splicing fitness (ln)” value was -0.871 ± 0.46.
Turning to UUGCAGCAAUAUUACGUUUU, the “self-splicing fitness (ln)” value (30 °C) is -3.97 ± 0.22 and the “self-splicing fitness (ln)” value (37 °C) is -1.85 ± 0.13.
For the sequence CCCCAGCAAUAUUACGGACC, the “self-splicing fitness (ln)” value was -4.08 ± 0.35 (30 °C) and -2.64 ± 0.26 (37 °C).
For ACCAAGCAAUAUUACGCUGG, the “self-splicing fitness (ln)” value is, setting by setting: (30 °C) -2.75 ± 0.15; (37 °C) -2.72 ± 0.21.
As to GCGAAGCAAUAUUACGGUGU, the “self-splicing fitness (ln)” value (30 °C) is -3.59 ± 0.14 and the “self-splicing fitness (ln)” value (37 °C) was -2.66 ± 0.13.
For CAUCAGCAAUAUUACGACAC the same measures were -1.78 ± 0.21 and -3.05 ± 0.37.
On the same counts, the results for CGGAAGCAAUAUUACGAGGA are -1.95 ± 0.2 and -1.4 ± 0.19.
